Assay results as given in patent US11371056B2, “HPPD variants and methods of use” (BASF Agricultural Solutions Seed US LLC, priority 2017, dated 2022).
Changes are numbered by the printed parent chain.

B1: SEQ ID NO:17 (protein)
chain: MADLYENPMGLMGFEFIEFASPTPGTLEPIFEIMGFTKVATHRSKNVHLYRQGEINLILNNEPNSIASYFAAEHGPSVCGMAFRVKDSQKAYNRALELGAQPIHIDTGPMELNLPAIKGIGGAPLYLIDRFGEGSSIYDIDFVYLEGVERNPVGAGLKVIDHLTHNVYRGRMVYWANFYEKLFNFREARYFDIKGEYTGLTSKAMSAPDGMIRIPLNEESSKGAGQIEEFLMQFNGEGIQHVAFLTDDLVKTWDALKKIGMRFMTAPGDEYYEMLEGRLPDHGEPVDQLQARGILLDGSSVEGDKRLLLQIFSETLMGPVFFEFIQRKGDDGFGPDSFKVLFESMERDQVRRGVLTAD
modifications: mutant HPPD polypeptide
B2: SEQ ID NO:18 (protein)
chain: B1 chain with T315K, S344Q
modifications: mutant HPPD polypeptide
B3: SEQ ID NO:19 (protein)
chain: B1 chain with T315Q, S344Q
modifications: mutant HPPD polypeptide
B4: SEQ ID NO:20 (protein)
chain: B1 chain with T315R, S344Q
modifications: mutant HPPD polypeptide
B5: SEQ ID NO:21 (protein)
chain: B1 chain with S344Q
modifications: mutant HPPD polypeptide
B6: SEQ ID NO:22 (protein)
chain: B1 chain with T315K, D336H, M345I
modifications: mutant HPPD polypeptide
B7: SEQ ID NO:23 (protein)
chain: B1 chain with T315Q, D336H, M345I
modifications: mutant HPPD polypeptide
B8: SEQ ID NO:24 (protein)
chain: B1 chain with T315R, D336H, M345I
modifications: mutant HPPD polypeptide
B9: SEQ ID NO:25 (protein)
chain: B1 chain with D336H, M345I
modifications: mutant HPPD polypeptide
B10: SEQ ID NO:27 (protein)
chain: B1 chain with M264L, T315R, D336H, M345I
modifications: mutant HPPD polypeptide
B11: SEQ ID NO:29 (protein)
chain: B1 chain with T315K, D336H, S344Q, M345I
modifications: mutant HPPD polypeptide
B12: SEQ ID NO:30 (protein)
chain: B1 chain with T315Q, D336H, S344Q, M345I
modifications: mutant HPPD polypeptide
B13: SEQ ID NO:31 (protein)
chain: B1 chain with T315K, D336H
modifications: mutant HPPD polypeptide
B14: SEQ ID NO:32 (protein)
chain: B1 chain with T315Q, D336H
modifications: mutant HPPD polypeptide
B15: SEQ ID NO:34 (protein)
chain: B1 chain with D336H
modifications: mutant HPPD polypeptide
B16: SEQ ID NO:37 (protein)
chain: B1 chain with T315R, D336H, S344Q
modifications: mutant HPPD polypeptide
B17: SEQ ID NO:39 (protein)
chain: B1 chain with R213K, T315K
modifications: mutant HPPD polypeptide
B18: SEQ ID NO:40 (protein)
chain: B1 chain with R213K, T315Q
modifications: mutant HPPD polypeptide
B19: SEQ ID NO:41 (protein)
chain: B1 chain with R213K, T315R
modifications: mutant HPPD polypeptide
B20: SEQ ID NO:42 (protein)
chain: B1 chain with R213K
modifications: mutant HPPD polypeptide
B21: SEQ ID NO:43 (protein)
chain: B1 chain with R213K, T315K, D336H
modifications: mutant HPPD polypeptide
B22: SEQ ID NO:44 (protein)
chain: B1 chain with R213K, T315Q, D336H
modifications: mutant HPPD polypeptide
B23: SEQ ID NO:45 (protein)
chain: B1 chain with R213K, D336H
modifications: mutant HPPD polypeptide
B24: SEQ ID NO:33 (protein)
chain: B1 chain with T315R, D336H
modifications: mutant HPPD polypeptide

Test system: Pseudomonas fluorescens HPPD polypeptide (wild-type and mutants)
Experiment: Coupled HPPD activity assay: turnover and residual turnover in crude HPPD polypeptide extracts with and without Cmpd. 1
Format: biochemical
Details: 100 μM Cmpd. 1, normalised to turnover without inhibitor
Experimental: For the generation of crude HPPD polypeptide extract in micro titer plates (MTP) for the determination of residual activity in inhibition assays, cells were grown in 40 or 150 μl LB medium containing 1% Glucose (Merck, Darmstadt, Germany) and 100 μg/ml ampicillin in a standard 96 well plate (Thermo Fisher Scientific, Waltham, USA) incubated for about 18 h in a humidity incubator at 37° C. 30 μl of this starter culture were added to 600 μl LB medium containing 100 μg/ml ampicillin and 150 mM Hepes (Merck, Darmstadt, Germany) as inoculum for the expression culture in 96 well plates (2 ml deep wells; HJ Bioanalytik, Erkelenz, Germany). The plates were sealed by an aluminium foil, and cells were incubated for 5 h at 37° C. on a plate shaker at 750 rpm. The expression was induced by addition of IPTG in a final concentration of 1 mM followed by further sealed incubation for about 18 h at 30° C. on a plate shaker at 750 rpm.
Cells were harvested by centrifugation at 4° C., 2500 g for 15 min discarding the supernatant. Cell pellets were stored at −80° C. and lysed in 250 μl 1× BugBuster® (Merck, Darmstadt, Germany) in 140 mM Tris (pH 7.8), with 1:25000 diluted BNase® (Qiagen, Hilden, Germany) by incubation of the resuspended cells for 30 min at 4° C. and 1000 rpm. Lysates were clarified by centrifugation for 15 min at 4° C., 2500 g, and 150 μl supernatant were transferred in standard 96 well plate (Thermo Fisher Scientific, Waltham, USA) for subsequent testing in quadruplets.
The activity of HPPD polypeptides was determined in absence or presence of HPPD inhibitors using the coupled HPPD activity assay (FIG. 1).
For the determination of the residual activity, the apparent kinetic constant (kapp) of the determined substrate conversion was measured as kinetic changes in absorbance (OD) at 320 nm in a coupled assay, in that homogentisate (HGA) formed by HPPD from HPP is directly converted into the well absorbing molecule maleylacetoacetate (MAA) by a second enzyme homogentisate dioxygenase (HGD), applied in excess uniformly in all assays (see FIG. 1). The measurements were performed in 384 micro titer plates (Greiner Bio-One GmbH, Frickenhausen, Germany) by plate readers (Tecan infinite M1000 or M1000PRO, Tecan, Männedorf, Switzerland). The kcat/kM ratio of an enzymatic activity is proportional to the apparent kinetic constant kapp and is proportional to kcat/kM*[E] ([E]=enzyme concentration). […] As both kapp measurements in the presence and absence of inhibitor were performed by use of the identical enzyme sample, crude or purified, and thereby at the same enzyme concentration, the enzyme concentration eliminates from the calculation of residual activity and the ratio of both kapp directly indicates the change of kM due to the inhibition.
The assay solution used for determination of residual activities in raw HPPD polypeptide samples was composed by 200 mM sodium phosphate (Merck, Darmstadt, Germany, pH 7.0), 5 mM MgCl2 (Merck, Darmstadt, Germany), 20 mM ascorbate (Sigma-Aldrich, St. Louis, USA), 1 mM DTT (Sigma-Aldrich, St. Louis, USA), 0.1% Pluronic F-68 (Sigma-Aldrich, St. Louis, USA), 40 μM FeSO4 (Sigma-Aldrich, St. […] Louis, USA) and equilibrated for 20 min on ice.

Molecule | Residual turnover [%]
B1 | 41%
B2 | 41%
B3 | 40%
B4 | 49%
B5 | 38%
B6 | 42%
B7 | 48%
B8 | 54%
B9 | 45%
B10 | 58%
B11 | 61%
B12 | 61%
B13 | 48%
B14 | 57%
B15 | 53%
B16 | 42%
B17 | 32%
B18 | 36%
B19 | 43%
B20 | 33%
B21 | 54%
B22 | 54%
B23 | 60%

Same assay, conditions: absence of Cmpd. 1; changes in absorbance (OD) at 320 nm in the coupled assay, 30 min

Molecule | Turnover
B1 | 0.184
B2 | 0.221
B3 | 0.218
B4 | 0.166
B5 | 0.214
B6 | 0.259
B7 | 0.272
B8 | 0.271
B9 | 0.25
B10 | 0.262
B11 | 0.286
B12 | 0.294
B13 | 0.268
B14 | 0.269
B24 | 0.015
B15 | 0.278
B16 | 0.106
B17 | 0.176
B18 | 0.204
B19 | 0.247
B20 | 0.209
B21 | 0.291
B22 | 0.272
B23 | 0.275

Same assay, conditions: presence of 100 μM Cmpd. 1; changes in absorbance (OD) at 320 nm in the coupled assay, 30 min

Molecule | Residual turnover
B1 | 0.075
B2 | 0.091
B3 | 0.087
B4 | 0.082
B5 | 0.082
B7 | 0.131
B8 | 0.147
B9 | 0.112
B10 | 0.153
B11 | 0.174
B12 | 0.18
B13 | 0.128
B14 | 0.154
B24 | 0.014
B15 | 0.148
B16 | 0.045
B17 | 0.057
B18 | 0.073
B19 | 0.105
B20 | 0.068
B21 | 0.157
B22 | 0.148
B23 | 0.164
